Assay results: PMC3808355

Tested on: ProQ (Escherichia coli (BW25113-derived; ASKA pCA24N clone or pMCSG7 clone))
Assay: tryptophan fluorescence titration
Settings: 20 nM ProQ, excitation 295 nm, emission 355 nm, buffer, salt, pH and temperature not in the material

proP P1 mRNA
Kd: 17 nM

rpoS mRNA
Kd: 19.5 nM

proP P2 mRNA
Kd: 11.6 nM
